Where two headings read alike, the source gives them in different places.
Experiments:
human CD40-Fc protein [1] = molecular target: T1, human CD40-Fc protein (human, biotinylated (sites not given) in the capture ELISA and the benchmark blocking ELISA; not biotinylated in the ligand blocking ELISA); assay: capture ELISA: antibody captured on coated goat anti-human IgG F(ab')2, biotinylated human CD40-Fc 1.15 nM, streptavidin-HRP, OD(450-630)
T1 construct: also called biotinylated human CD40-Fc
Experimental: (§1) The plate was washed once with a washing buffer (PBS+0.05% v/v of Tween-20, PBST) and then blocked with 200 μL/well blocking buffer (PBST containing 5% w/v of skim milk) for 2 h at 37° C. The plate was washed 4 times, and the anti-CD40 antibody of the present application, BM1, BM2, and a negative control hIgG (human immunoglobulin for intravenous injection (pH 4), Hualan Biological Engineering Inc.) serially 5-fold diluted from 66.7 nM in a PBST containing 2.5% w/v of skim milk was added at 100 μL per well. The plate was incubated for 40 min at 37° C. and washed 4 times. A biotinylated human CD40-Fc protein (amino acid residues 21-193 of SEQ ID NO: 30 linked to the N terminus of amino acid residues 99-330 of SEQ ID NO: 28, dissolved in PBST containing 2.5% w/v of skim milk at a concentration of 1.15 nM) was added at 100 μL/well to a 96-well plate coated with the anti-CD40 antibody. The plate was incubated at 37° C. for 40 min and washed 4 times. An HRP-labeled streptavidin (diluted at 1:10000 in PBST, Jackson Immuno Research, Cat. No. 016-030-084) was added at 100 μL/well, and the plate was incubated at 37° C. for another 40 min. After the last wash, 100 μL/well of ELISA substrate TMB (Innoreagents, Cat. No. TMB-S-002) was added and the plate was incubated at room temperature. After 3-10 min, the reaction was stopped by adding 1 M H₂SO₄ at 50 µL/well, and the absorbance of each well was read on a microplate reader using the dual wavelength mode (TMB detection wavelength: 450 nm, reference wavelength: 630 nm). Curves of OD(450-630) values vs. antibody concentration were plotted. Data were analyzed using Graphpad Prism software, and EC₅₀ values were obtained.

[2] = molecular target: T2, recombinant human CD40-his (Acro biosystems, Cat. No. CD0-H5228) (human, UniProt P25942 21-193); assay: BLI (Octet RED 96), antibody captured from cell supernatant on AHC sensor, human CD40-his as analyte, 1:1 fit
T2 construct: Bought protein; also called human CD40-his protein; not shown: His tag
T2 sequence (P25942 21-193 limits assumed): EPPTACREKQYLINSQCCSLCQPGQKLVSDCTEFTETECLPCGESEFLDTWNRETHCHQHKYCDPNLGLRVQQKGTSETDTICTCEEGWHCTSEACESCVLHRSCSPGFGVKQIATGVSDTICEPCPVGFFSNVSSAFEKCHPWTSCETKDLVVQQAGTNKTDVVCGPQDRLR
Experimental: After six days of culture in a shake flask, the cell supernatant containing the humanized antibodies huC1H1-V1 to huC1H1-V4 was harvested and the binding affinity of the antibodies to human CD40 was determined on an Octet system (Fortebio, Octet RED 96) according to the following procedures. Briefly, an anti-human IgG Fc capture (AHC) biosensor (from ForteBio) was pre-soaked in a 10 mM glycine solution (pH 1.5) for 3 s, and then soaked in a running buffer (PBST containing 0.5% w/v of BSA) for 3 s. The pre-soaking and soaking procedures were repeated 3 times. Then, the sensor was soaked in the cell supernatant containing the humanized anti-CD40 antibody, chimeric antibody C1H1 dissolved in HBS-EP⁺ buffer at a concentration of 5 μg/mL, or the benchmark dissolved in HBS-EP⁺ buffer at a concentration of 5 μg/mL for 120 s, and then soaked in the running buffer for 5 min. The new baseline was run in the running buffer for 180 s. The sensor was then soaked for 120 s in human CD40-his protein (Acro biosystems, Cat. No. CD0-H5228) 2-fold serially diluted from 40 nM in the running buffer and for 10 min in the running buffer […]. Finally, the sensor was pre-soaked in a 10 mM glycine solution (pH 1.5) for 3 s, and then soaked in the running buffer for 3 s. The pre-soaking and soaking procedures were repeated 3 times. The association and dissociation curves were fitted to a 1:1 Langmuir binding model using ForteBio Data Analysis 8.1.

human CD40-Fc protein [3] = molecular target: T1, human CD40-Fc protein; assay: capture ELISA: antibody captured on coated goat anti-human IgG F(ab')2, biotinylated human CD40-Fc 1.15 nM, streptavidin-HRP, OD(450-630); remark: listed apart in the source
Experimental: as §1

T1 sequence (chain, as listed by the source limits assumed): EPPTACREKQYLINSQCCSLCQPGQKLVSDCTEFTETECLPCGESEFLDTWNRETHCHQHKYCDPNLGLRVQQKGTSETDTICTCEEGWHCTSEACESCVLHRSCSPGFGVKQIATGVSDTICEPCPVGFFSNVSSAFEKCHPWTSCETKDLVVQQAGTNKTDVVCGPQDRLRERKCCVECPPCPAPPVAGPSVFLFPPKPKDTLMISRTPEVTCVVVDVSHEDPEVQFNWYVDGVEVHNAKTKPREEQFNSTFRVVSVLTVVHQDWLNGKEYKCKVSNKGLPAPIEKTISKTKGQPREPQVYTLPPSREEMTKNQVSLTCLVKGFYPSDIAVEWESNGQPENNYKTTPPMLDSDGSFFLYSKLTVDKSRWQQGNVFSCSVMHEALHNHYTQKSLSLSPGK

Binder	EC50 (human CD40-Fc protein [1]) [nM]	Kd [2] [nM]	koff [2] [s⁻¹]	kon [2] [M⁻¹ s⁻¹]	EC50 (human CD40-Fc protein [3]) [nM]
chimeric antibody 1A3 (antibody, human IgG1, kappa, V domains shown, Mouse variable regions on human IgG1 / kappa constant regions) VH: EVQLQQSGPELVKTGASVKISCKASGYSFIGYYLHWVKQSLGKGLEWIGYISCHDGTIIYNQKFKGKATFTLDTSSSTAYMQFSSLTSEDSAVYFCARFLNYYGSNYAMDYWGQGTSVTVSS VL: DIVMTQSHKFMSTSVGDRVSITCKASQDVGPAVAWYQQKPGQSPKLLIYWASTRHTGVPDRFTGSGYGTDFTLTINNVQSEDLADYFCQQYFTYPLTFGGGTKLEIKR	1.33	–	–	–	–
humanized antibody huC1H1-V3 (antibody, human IgG2, kappa, V domains shown, Human IgG2 / kappa; Tested as cell supernatant in the Octet assay) VH: EVQLVESGGGLVKPGGSLRLSCAASGFTFSNYGISWVRQAPGKGLEWVASISSGGDNTYYPDNVKGRFTISRDNAKNSLYLQMNSLRAEDTAVYYCARAGEKAMDYWGQGTLVTVSS VL: EIVLTQSPATLSLSPGERATLSCRASQTINNNLHWYQQKPGQAPRLLIYYASQSISGIPARFSGSGSGTDFTLTISSLEPEDFAVYYCQQFSSWPLTFGGGTKVEIKR	–	5.41	0.00283	523000	–
humanized antibody huC1H1-V4 (antibody, human IgG2, kappa, V domains shown, Human IgG2 / kappa; Tested as cell supernatant in the Octet assay) VH: EVQLVESGGGLVKPGGSLRLSCAASGFTFSNYGISWVRQAPGKGLEWVSSISSGGDNTYYPDNVKGRFTISRDNAKNSLYLQMNSLRAEDTAVYYCARAGEKAMDYWGQGTLVTVSS VL: EIVLTQSPATLSLSPGERATLSCRASQTINNNLHWYQQKPGQAPRLLIYYASQSISGIPARFSGSGSGTDFTLTISSLEPEDFAVYYCQQFSSWPLTFGGGTKVEIKR	–	8.66	0.00367	424000	–
mouse anti-CD40 monoclonal antibody 1A3 (parent of chimeric antibody 1A3) (antibody, V domains shown, Parent mouse antibody of chimeric 1A3; also called parent antibody) VH: EVQLQQSGPELVKTGASVKISCKASGYSFIGYYLHWVKQSLGKGLEWIGYISCHDGTIIYNQKFKGKATFTLDTSSSTAYMQFSSLTSEDSAVYFCARFLNYYGSNYAMDYWGQGTSVTVSS VL: DIVMTQSHKFMSTSVGDRVSITCKASQDVGPAVAWYQQKPGQSPKLLIYWASTRHTGVPDRFTGSGYGTDFTLTINNVQSEDLADYFCQQYFTYPLTFGGGTKLEIK	0.592	–	–	–	–
chimeric antibody 1D1 (antibody, human IgG1, kappa, V domains shown, Mouse variable regions on human IgG1 / kappa constant regions) VH: EVQLQQSGPELVKPGASVKMSCKASGYTFTDYVMHWVKQKPGQGLECIGYINPYNDGTTYNEKFKGKATLTSDKSSNAAYLELSSLTSEDSAVYYCARGFLRESWFGYWGQGTLVTVSA VL: DVLLTQTPLSLPVSLGDQASISCRSSQNIVHSNGNTYLDWYLQKPGQSPKLLIYKVSNRFSGVPDRFSGSGSGTDFTLKISRVEAEDLGVYYCFQGSHVPPTFGGGTKLELKR	–	–	–	–	15
mouse anti-CD40 monoclonal antibody 1D1 (parent of chimeric antibody 1D1) (antibody, V domains shown, Parent mouse antibody of chimeric 1D1; also called parent antibody) VH: EVQLQQSGPELVKPGASVKMSCKASGYTFTDYVMHWVKQKPGQGLECIGYINPYNDGTTYNEKFKGKATLTSDKSSNAAYLELSSLTSEDSAVYYCARGFLRESWFGYWGQGTLVTVSA VL: DVLLTQTPLSLPVSLGDQASISCRSSQNIVHSNGNTYLDWYLQKPGQSPKLLIYKVSNRFSGVPDRFSGSGSGTDFTLKISRVEAEDLGVYYCFQGSHVPPTFGGGTKLELK	–	–	–	–	8.7

Reference: patent US20240398942A1 (CHIA TAI TIANQING PHARMACEUTICAL GROUP, published 2024)
